Experimental data: paper doi:10.1101/2020.12.10.419556

Columns and labels:
Assay in all cases: loss of red fluorescence after photoconversion
[1] = molecular target: PhoCl1 empty barrel fragment (residues 1-231), from pBAD/HisB constructs
[2] = molecular target: PhoCl1.5f-MVL empty barrel fragment (residues 1-231)
[3] = molecular target: PhoCl2f empty barrel fragment (residues 1-231)

Q: “PhoCl C-terminal peptide fragment (residues 232-242), from pBAD/HisB PhoCl variants” was tested. Which dissociation t1/2 [1] did it give?
A: 9.5 min

Q: What about the red fluorescence remaining after dissociation [2] of the same substance?
A: 60%

Q: What about the dissociation t1/2 [3] of the same substance?
A: 1.27 min
